Measured values as given in patent US20120328512A1 (BRACCO IMAGING S P A, published 2012).
Bridge positions count the residues as written; N and C are the ends. Square brackets hold non-standard residues; d marks the D form. * marks the point of attachment. αGalNAc = CC(=O)N[C@@H]1[C@@H](O)[C@@H](O)[C@@H](CO)O[C@@H]1*; Phe(3,4-F2) = N[C@@H](Cc1ccc(F)c(F)c1)C(=O)O; Thf2ca = tetrahydrofuran-2-carboxylic acid; Hyp = O=C(O)[C@@H]1C[C@@H](O)CN1; Cha = N[C@@H](CC1CCCCC1)C(=O)O; CF5 = 5-carboxyfluorescein; AEEA = NCCOCCOCC(=O)O

T1: DDE
T1 chain 1: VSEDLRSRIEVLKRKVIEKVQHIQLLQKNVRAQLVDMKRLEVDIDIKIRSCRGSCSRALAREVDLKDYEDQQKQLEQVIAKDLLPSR
T1 chain 2: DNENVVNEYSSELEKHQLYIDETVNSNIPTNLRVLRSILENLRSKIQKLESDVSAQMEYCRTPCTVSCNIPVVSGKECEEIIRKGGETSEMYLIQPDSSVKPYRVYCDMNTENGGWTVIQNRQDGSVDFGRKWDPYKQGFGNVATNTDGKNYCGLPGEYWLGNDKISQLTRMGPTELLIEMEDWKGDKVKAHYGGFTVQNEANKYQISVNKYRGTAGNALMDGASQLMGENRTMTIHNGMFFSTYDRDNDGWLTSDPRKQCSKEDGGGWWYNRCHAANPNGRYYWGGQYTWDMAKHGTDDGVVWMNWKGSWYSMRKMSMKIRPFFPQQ
T1 chain 3: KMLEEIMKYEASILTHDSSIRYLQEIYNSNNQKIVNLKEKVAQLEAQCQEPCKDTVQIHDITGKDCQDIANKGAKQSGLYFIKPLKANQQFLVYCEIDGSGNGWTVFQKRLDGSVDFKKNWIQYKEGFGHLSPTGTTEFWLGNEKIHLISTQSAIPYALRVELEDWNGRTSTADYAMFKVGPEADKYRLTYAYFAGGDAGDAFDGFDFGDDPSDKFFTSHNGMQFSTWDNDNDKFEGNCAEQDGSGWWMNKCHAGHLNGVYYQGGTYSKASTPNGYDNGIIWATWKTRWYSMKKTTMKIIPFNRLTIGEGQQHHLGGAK
T1 chain 4: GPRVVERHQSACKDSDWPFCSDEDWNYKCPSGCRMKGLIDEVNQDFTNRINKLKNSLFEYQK
T1 chain 5: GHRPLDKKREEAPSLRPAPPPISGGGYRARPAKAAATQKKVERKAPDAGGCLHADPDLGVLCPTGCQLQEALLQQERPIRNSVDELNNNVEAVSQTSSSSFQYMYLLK
T1 chain 6: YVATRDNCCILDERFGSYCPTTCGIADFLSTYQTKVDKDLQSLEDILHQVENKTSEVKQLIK


Tests used:
DDE [1] = molecular target: T1, DDE; assay: competition fluorescence polarization: unlabeled peptide against Seq000-CF5 tracer on DDE; n = 2
DDE [2] = molecular target: T1, DDE; assay: direct binding fluorescence polarization: CF5-labeled peptide titrated with DDE; n = 2
DDE [3] = assay: competition fluorescence polarization: unlabeled peptide against Seq000-CF5 tracer on DDE; n = 2; remark: listed apart in the source

Row | Binder | Rel IC50 (DDE [1]) | Kd (DDE [2]) [nM] | also measured
1 | H-RWQPCPWESWTFCWDPGGGK-NH2 (disulfide 5-13) [Seq023-P] | 0.47 ratio to the reference peptide | – | –
2 | Ac-GPPGWQPCPAESWTFCWDPGGGK(CF5)-NH2 (disulfide 8-16) [Seq034-CF5] | – | 310 | –
3 | H-GWQPCPWESWTFCWDPGGGK-NH2 (disulfide 5-13) [Seq021-P] | – | – | Rel IC50 (ratio to the reference peptide) (DDE [3]): 0.622
4 | Ac-S(αGalNAc)[AEEA]WQPCPWESWTFCWDPGGGK-NH2 (disulfide 6-14; SMILES CC(=O)N[C@H]1[C@@H](OC[C@H](NC(C)=O)C(=O)NCCOCCOCC(=O)N[C@@H](Cc2c[nH]c3ccccc23)C(=O)N[C@@H](CCC(N)=O)C(=O)N2CCC[C@H]2C(=O)N[C@H]2CSSC[C@@H](C(=O)N[C@@H](Cc3c[nH]c4ccccc34)C(=O)N[C@@H](CC(=O)O)C(=O)N3CCC[C@H]3C(=O)NCC(=O)NCC(=O)NCC(=O)N[C@@H](CCCCN)C(N)=O)NC(=O)[C@H](Cc3ccccc3)NC(=O)[C@H]([C@@H](C)O)NC(=O)[C@H](Cc3c[nH]c4ccccc34)NC(=O)[C@H](CO)NC(=O)[C@H](CCC(=O)O)NC(=O)[C@H](Cc3c[nH]c4ccccc34)NC(=O)[C@@H]3CCCN3C2=O)O[C@H](CO)[C@H](O)[C@@H]1O) [Seq031-P] | 1.15 ratio to the reference peptide | – | –
5 | Ac-RRGGWQPC[Hyp]WESWTFCWDPGGGK-NH2 (disulfide 8-16; SMILES CC(=O)N[C@@H](CCCNC(=N)N)C(=O)N[C@@H](CCCNC(=N)N)C(=O)NCC(=O)NCC(=O)N[C@@H](Cc1c[nH]c2ccccc12)C(=O)N[C@@H](CCC(N)=O)C(=O)N1CCC[C@H]1C(=O)N[C@H]1CSSC[C@@H](C(=O)N[C@@H](Cc2c[nH]c3ccccc23)C(=O)N[C@@H](CC(=O)O)C(=O)N2CCC[C@H]2C(=O)NCC(=O)NCC(=O)NCC(=O)N[C@@H](CCCCN)C(N)=O)NC(=O)[C@H](Cc2ccccc2)NC(=O)[C@H]([C@@H](C)O)NC(=O)[C@H](Cc2c[nH]c3ccccc23)NC(=O)[C@H](CO)NC(=O)[C@H](CCC(=O)O)NC(=O)[C@H](Cc2c[nH]c3ccccc23)NC(=O)[C@@H]2C[C@@H](O)CN2C1=O) [Seq047-P] | 0.75 ratio to the reference peptide | – | –
6 | Ac-KKGWQPCPWESWTFCWDPGGGK(CF5)-NH2 (disulfide 7-15) [Seq025-CF5] | – | 710 | –
7 | Ac-RRGGWQPCPWESWTFCWDPGGGK-NH2 (disulfide 8-16; SMILES CC(=O)N[C@@H](CCCNC(=N)N)C(=O)N[C@@H](CCCNC(=N)N)C(=O)NCC(=O)NCC(=O)N[C@@H](Cc1c[nH]c2ccccc12)C(=O)N[C@@H](CCC(N)=O)C(=O)N1CCC[C@H]1C(=O)N[C@H]1CSSC[C@@H](C(=O)N[C@@H](Cc2c[nH]c3ccccc23)C(=O)N[C@@H](CC(=O)O)C(=O)N2CCC[C@H]2C(=O)NCC(=O)NCC(=O)NCC(=O)N[C@@H](CCCCN)C(N)=O)NC(=O)[C@H](Cc2ccccc2)NC(=O)[C@H]([C@@H](C)O)NC(=O)[C@H](Cc2c[nH]c3ccccc23)NC(=O)[C@H](CO)NC(=O)[C@H](CCC(=O)O)NC(=O)[C@H](Cc2c[nH]c3ccccc23)NC(=O)[C@@H]2CCCN2C1=O) [Seq029-P] | 0.125 ratio to the reference peptide | – | –
8 | Ac-RRGGWQPCPAESWTFCWDPGGGK(CF5)-NH2 (disulfide 8-16) [Seq046-CF5] | – | 220 | –
9 | H-RGWQPCPWESWTFCWDPGGGK-NH2 (disulfide 6-14) [Seq022-P] | 0.511 ratio to the reference peptide | – | –
10 | Ac-KKGWQPCPWESWTFCWDPGGGK-NH2 (disulfide 7-15) [Seq025-P] | 0.357 ratio to the reference peptide | – | –
11 | Ac-WQPCPAESWTFCWDPGGGK-NH2 (disulfide 4-12; SMILES CC(=O)N[C@@H](Cc1c[nH]c2ccccc12)C(=O)N[C@@H](CCC(N)=O)C(=O)N1CCC[C@H]1C(=O)N[C@H]1CSSC[C@@H](C(=O)N[C@@H](Cc2c[nH]c3ccccc23)C(=O)N[C@@H](CC(=O)O)C(=O)N2CCC[C@H]2C(=O)NCC(=O)NCC(=O)NCC(=O)N[C@@H](CCCCN)C(N)=O)NC(=O)[C@H](Cc2ccccc2)NC(=O)[C@H]([C@@H](C)O)NC(=O)[C@H](Cc2c[nH]c3ccccc23)NC(=O)[C@H](CO)NC(=O)[C@H](CCC(=O)O)NC(=O)[C@H](C)NC(=O)[C@@H]2CCCN2C1=O) [Seq005-P] | 0.875 ratio to the reference peptide | – | –
12 | Ac-SGSG[AEEA]WQPCPAESWTFCWDPGGGK(CF5)-NH2 (disulfide 9-17) [Seq045-CF5] | – | 570 | –
13 | Ac-GGRGWQPCPAESWTFCWDPGGGK(CF5)-NH2 (disulfide 8-16) [Seq035-CF5] | – | 520 | –
14 | Ac-S(αGalNAc)WQPCPWESWTFCWDPGGGK-NH2 (disulfide 5-13) [Seq027-P] | – | – | Rel IC50 (ratio to the reference peptide) (DDE [3]): 0.559
15 | Ac-SGSG[AEEA]WQPCPWESWTFCWDPGGGK-NH2 (disulfide 9-17) [Seq017-P] | 0.714 ratio to the reference peptide | – | –
16 | Ac-WQPCPWESWT[Phe(3,4-F2)]CWDPGGGK-NH2 (disulfide 4-12) [Seq020-P] | – | – | Rel IC50 (ratio to the reference peptide) (DDE [3]): 0.428
17 | Ac-GPPGWQPCPWESWTFCWDPGGGK-NH2 (disulfide 8-16) [Seq014-P] | 0.235 ratio to the reference peptide | – | –
18 | Ac-WQPCPAESWT[Cha]CWDPGGGK(CF5)-NH2 (disulfide 4-12, also called Ac-WQPC*PAESWT-Cha-C*WDPGGGK(CF5)-NH2) [Seq042-CF5] | – | 170 | –
19 | Ac-SGSGSGSGWQPCPWESWTFCWDPGGGK-NH2 (disulfide 12-20) [Seq024-P] | 0.527 ratio to the reference peptide | – | –
20 | Ac-GGRGWQPCPWESWTFCWDPGGGK-NH2 (disulfide 8-16) [Seq015-P] | 0.37 ratio to the reference peptide | – | –
21 | Ac-WQPC[Hyp]WESWTFCWDPGGGK-NH2 (disulfide 4-12, also called Ac-WQPC*-Hypt4-WESWTFC*WDPGGGK-NH2) [Seq032-P] | 0.55 ratio to the reference peptide | – | –
22 | Thf2ca-WQPCPWESWTFCWDPGGGK-NH2 (disulfide 4-12) [Seq028-P] | – | – | Rel IC50 (ratio to the reference peptide) (DDE [3]): 0.616
23 | Ac-KGKGKGWQPCPWESWTFCWDPGGGK-NH2 (disulfide 10-18) [Seq026-P] | 0.595 ratio to the reference peptide | – | –
24 | Ac-SGSGSGSGWQPCPAESWTFCWDPGGGK(CF5)-NH2 (disulfide 12-20) [Seq040-CF5] | – | 530 | –
25 | Ac-KGKGKGWQPCPWESWTFCWDPGGGK(CF5)-NH2 (disulfide 10-18) [Seq026-CF5] | – | 760 | –
